Measurements from patent US20150065381A1.
Values joined by “and” are separate entries in the source; they are usually repeats but may differ in a detail not shown here. Equal entries are not always repeated.

Tests used:
[1] = molecular target: HIV-1 16055 envelope (HIV-1); assay: capture ELISA, plate 1, mAb 7.5 ug/ml
[2] = molecular target: HIV-1 JRCSF envelope (HIV-1) (UniProt P20871); assay: capture ELISA, plate 1, mAb 7.5 ug/ml
[3] = molecular target: HIV-1 JRFL envelope (HIV-1); assay: capture ELISA, plate 1, mAb 7.5 ug/ml
[4] = molecular target: HIV-1 envelope clone G-011.c02 (multiclade gp160 clone panel) (HIV-1); assay: capture ELISA, plate 1, mAb 7.5 ug/ml
[5] = molecular target: HIV-1 envelope clone G-011.c05 (multiclade gp160 clone panel) (HIV-1); assay: capture ELISA, plate 1, mAb 7.5 ug/ml
[6] = molecular target: HIV-1 envelope of gp160 clone AG-010.c11 (HIV-1); assay: capture ELISA, plate 1, mAb 7.5 ug/ml
[7] = molecular target: HIV-1 envelope of gp160 clone AG-010.c14 (HIV-1); assay: capture ELISA, plate 1, mAb 7.5 ug/ml
[8] = molecular target: HIV-1 envelope of gp160 clone B-Acute-008.c11 (HIV-1); assay: capture ELISA, plate 1, mAb 7.5 ug/ml
[9] = molecular target: HIV-1 envelope of gp160 clone B-Acute-009-c08 (HIV-1); assay: capture ELISA, plate 1, mAb 7.5 ug/ml
[10] = molecular target: HIV-1 envelope of gp160 clone B-Acute-010.c08 (HIV-1); assay: capture ELISA, plate 1, mAb 7.5 ug/ml
[11] = molecular target: HIV-1 envelope of gp160 clone B-Acute-010.c09 (HIV-1); assay: capture ELISA, plate 1, mAb 7.5 ug/ml
[12] = molecular target: HIV-1 envelope of gp160 clone B-Chronic-014.c02 (HIV-1); assay: capture ELISA, plate 1, mAb 7.5 ug/ml
[13] = molecular target: HIV-1 16055 envelope (HIV-1); assay: capture ELISA, plate 2, mAb 0.3 ug/ml
[14] = molecular target: HIV-1 JRCSF envelope (HIV-1) (UniProt P20871); assay: capture ELISA, plate 2, mAb 0.3 ug/ml
[15] = molecular target: HIV-1 JRFL envelope (HIV-1); assay: capture ELISA, plate 2, mAb 0.3 ug/ml
[16] = molecular target: HIV-1 envelope clone G-011.c02 (multiclade gp160 clone panel) (HIV-1); assay: capture ELISA, plate 2, mAb 0.3 ug/ml
[17] = molecular target: HIV-1 envelope clone G-011.c05 (multiclade gp160 clone panel) (HIV-1); assay: capture ELISA, plate 2, mAb 0.3 ug/ml
[18] = molecular target: HIV-1 envelope of gp160 clone AG-010.c11 (HIV-1); assay: capture ELISA, plate 2, mAb 0.3 ug/ml
[19] = molecular target: HIV-1 envelope of gp160 clone AG-010.c14 (HIV-1); assay: capture ELISA, plate 2, mAb 0.3 ug/ml
[20] = molecular target: HIV-1 envelope of gp160 clone B-Acute-008.c11 (HIV-1); assay: capture ELISA, plate 2, mAb 0.3 ug/ml
[21] = molecular target: HIV-1 envelope of gp160 clone B-Acute-009-c08 (HIV-1); assay: capture ELISA, plate 2, mAb 0.3 ug/ml
[22] = molecular target: HIV-1 envelope of gp160 clone B-Acute-010.c08 (HIV-1); assay: capture ELISA, plate 2, mAb 0.3 ug/ml
[23] = molecular target: HIV-1 envelope of gp160 clone B-Acute-010.c09 (HIV-1); assay: capture ELISA, plate 2, mAb 0.3 ug/ml
[24] = molecular target: HIV-1 envelope of gp160 clone B-Chronic-014.c02 (HIV-1); assay: capture ELISA, plate 2, mAb 0.3 ug/ml
[25] = molecular target: BG505 envelope (gp120 monomer released from lysed pseudovirus) (HIV-1); assay: antigen capture ELISA, mAb 0.3 ug/ml, plate 2
[26] = molecular target: aMLV envelope (from lysed pseudovirus); assay: antigen capture ELISA, mAb 0.3 ug/ml, plate 2
[27] = molecular target: BG505 envelope (gp120 monomer released from lysed pseudovirus) (HIV-1); assay: antigen capture ELISA, mAb 0.8 ug/ml, plate 1
[28] = molecular target: aMLV envelope (from lysed pseudovirus); assay: antigen capture ELISA, mAb 0.8 ug/ml, plate 1
[29] = molecular target: BG505 envelope (gp120 monomer released from lysed pseudovirus) (HIV-1); assay: antigen capture ELISA, mAb 2.5 ug/ml, plate 2
[30] = molecular target: aMLV envelope (from lysed pseudovirus); assay: antigen capture ELISA, mAb 2.5 ug/ml, plate 2
[31] = molecular target: HIV-1 envelope clone BF-002.c05 (multiclade gp160 clone panel) (HIV-1); assay: capture ELISA, plate 1, mAb 7.5 ug/ml
[32] = molecular target: HIV-1 envelope clone BF-002.c08 (multiclade gp160 clone panel) (HIV-1); assay: capture ELISA, plate 1, mAb 7.5 ug/ml
[33] = molecular target: HIV-1 envelope clone F1-002.c11 (multiclade gp160 clone panel) (HIV-1); assay: capture ELISA, plate 1, mAb 7.5 ug/ml
[34] = molecular target: HIV-1 envelope clone F1-002.c16 (multiclade gp160 clone panel) (HIV-1); assay: capture ELISA, plate 1, mAb 7.5 ug/ml
[35] = molecular target: HIV-1 envelope clone BF-002.c05 (multiclade gp160 clone panel) (HIV-1); assay: capture ELISA, plate 2, mAb 0.3 ug/ml
[36] = molecular target: HIV-1 envelope clone BF-002.c08 (multiclade gp160 clone panel) (HIV-1); assay: capture ELISA, plate 2, mAb 0.3 ug/ml
[37] = molecular target: HIV-1 envelope clone F1-002.c11 (multiclade gp160 clone panel) (HIV-1); assay: capture ELISA, plate 2, mAb 0.3 ug/ml
[38] = molecular target: HIV-1 envelope clone F1-002.c16 (multiclade gp160 clone panel) (HIV-1); assay: capture ELISA, plate 2, mAb 0.3 ug/ml

| Substance | ELISA OD [2] | ELISA OD [4] [OD] | ELISA OD [5] [OD] | ELISA OD [6] [OD] | ELISA OD [7] [OD] | ELISA OD [8] [OD] | ELISA OD [9] [OD] | ELISA OD [10] [OD] | ELISA OD [11] [OD] | ELISA OD [12] [OD] | ELISA OD [14] | ELISA OD [16] [OD] | ELISA OD [17] [OD] | ELISA OD [18] [OD] | ELISA OD [19] [OD] | ELISA OD [20] [OD] | ELISA OD [21] [OD] | ELISA OD [22] [OD] | ELISA OD [23] [OD] | ELISA OD [24] [OD] | other results |
| --- | --- | --- | --- | --- | --- | --- | --- | --- | --- | --- | --- | --- | --- | --- | --- | --- | --- | --- | --- | --- | --- |
| PG9 (antibody) | 0.411 OD and 0.454 OD | 0.108 | 0.37 | 0.891 | 1.22 | 0.363 | 0.115 | 0.547 | 0.199 | 2.35 | 0.113 OD and 0.131 OD | 0.052 | 0.076 | 0.257 | 0.274 | 0.097 | 0.057 | 0.079 | 0.074 | 0.479 | ELISA OD [1]: 0.519 OD and 0.367 OD; ELISA OD [3]: 0.072 OD and 0.11 OD; ELISA OD [13]: 0.118 OD and 0.146 OD; ELISA OD [15]: 0.06 OD and 0.056 OD; ELISA OD [25]: 0.162 OD; ELISA OD [26]: 0.057 OD and 0.063 OD; ELISA OD [27]: 0.261 OD; ELISA OD [28]: 0.091 OD and 0.06 OD; ELISA OD [29]: 0.346 OD; ELISA OD [30]: 0.059 OD and 0.053 OD |
| PG16 (antibody) | 0.248 OD and 0.287 OD | 0.069 | 0.158 | 0.332 | 0.817 | 0.205 | 0.083 | 0.272 | 0.282 | 0.476 | 0.133 OD and 0.167 OD | 0.09 | 0.095 | 0.167 | 0.337 | 0.141 | 0.077 | 0.11 | 0.071 | 0.222 | ELISA OD [1]: 0.215 OD and 0.16 OD; ELISA OD [3]: 0.173 OD and 0.159 OD; ELISA OD [31]: 0.971 OD; ELISA OD [32]: 0.168 OD; ELISA OD [33]: 0.168 OD; ELISA OD [34]: 0.244 OD; ELISA OD [35]: 0.361 OD; ELISA OD [36]: 0.097 OD; ELISA OD [37]: 0.098 OD; ELISA OD [38]: 0.224 OD; ELISA OD [25]: 0.067 OD; ELISA OD [26]: 0.096 OD and 0.103 OD; ELISA OD [27]: 0.165 OD; ELISA OD [28]: 0.073 OD and 0.056 OD; ELISA OD [29]: 0.103 OD; ELISA OD [30]: 0.067 OD and 0.069 OD |
| PGT145 (antibody) | 0.071 OD and 0.084 OD | 0.129 | 0.133 | 0.082 | 0.07 | 0.146 | 0.109 | 0.179 | 0.084 | 0.106 | 0.067 OD and 0.115 OD | 0.104 | 0.074 | 0.075 | 0.061 | 0.092 | 0.084 | 0.088 | 0.082 | 0.058 | ELISA OD [1]: 0.085 OD and 0.077 OD; ELISA OD [3]: 0.076 OD and 0.075 OD; ELISA OD [13]: 0.066 OD and 0.1 OD; ELISA OD [15]: 0.068 OD and 0.08 OD; ELISA OD [35]: 0.114 OD; ELISA OD [36]: 0.088 OD; ELISA OD [37]: 0.059 OD; ELISA OD [38]: 0.254 OD; ELISA OD [25]: 0.066 OD; ELISA OD [26]: 0.065 OD and 0.157 OD; ELISA OD [27]: 0.066 OD; ELISA OD [28]: 0.056 OD and 0.073 OD; ELISA OD [29]: 0.077 OD; ELISA OD [30]: 0.07 OD and 0.066 OD |
| PGT151 (antibody) | 0.073 OD and 0.086 OD | 0.121 | 0.089 | 0.081 | 0.148 | 0.256 | 0.11 | 0.206 | 0.081 | 0.525 | 0.069 OD and 0.065 OD | 0.116 | 0.057 | 0.075 | 0.121 | 0.234 | 0.063 | 0.149 | 0.072 | 0.216 | ELISA OD [1]: 0.08 OD and 0.078 OD; ELISA OD [3]: 0.088 OD and 0.08 OD; ELISA OD [31]: 0.286 OD; ELISA OD [32]: 0.087 OD; ELISA OD [33]: 0.087 OD; ELISA OD [34]: 0.105 OD; ELISA OD [13]: 0.054 OD and 0.096 OD; ELISA OD [15]: 0.073 OD and 0.088 OD; ELISA OD [35]: 0.1 OD; ELISA OD [36]: 0.09 OD; ELISA OD [37]: 0.058 OD; ELISA OD [38]: 0.107 OD; ELISA OD [25]: 0.057 OD; ELISA OD [26]: 0.053 OD and 0.128 OD; ELISA OD [27]: 0.054 OD; ELISA OD [28]: 0.054 OD and 0.05 OD; ELISA OD [29]: 0.063 OD; ELISA OD [30]: 0.075 OD and 0.104 OD |
| PGV04 (antibody) | 2.15 OD and 2.33 OD | 0.865 | 0.451 | 0.184 | 0.293 | 0.07 | 0.237 | 2.65 | 2.87 | 4 | 0.525 OD and 0.588 OD | 0.189 | 0.123 | 0.103 | 0.096 | 0.129 | 0.075 | 0.303 | 0.424 | 1.52 | ELISA OD [31]: 4 OD; ELISA OD [32]: 2.72 OD; ELISA OD [33]: 0.28 OD; ELISA OD [34]: 0.54 OD; ELISA OD [35]: 1 OD; ELISA OD [36]: 0.758 OD; ELISA OD [37]: 0.064 OD; ELISA OD [38]: 0.142 OD; ELISA OD [25]: 0.45 OD; ELISA OD [26]: 0.095 OD and 0.115 OD; ELISA OD [27]: 0.745 OD; ELISA OD [28]: 0.053 OD and 0.117 OD; ELISA OD [29]: 1.04 OD; ELISA OD [30]: 0.085 OD and 0.089 OD |
